Measured values published in PMC11323494, “A network of acetyl phosphate-dependent modification modulates c-di-AMP homeostasis in Actinobacteria” (mBio, 2024).

System: DasR K78Q (Saccharopolyspora erythraea NRRL2338)
Experiment: BLI
Settings: BLI: 10 mM HEPES pH 8.0, 2 mM MgCl2, 0.1 mM EDTA, 200 mM KCl (running buffer + 10 µg/mL BSA, 0.02% Tween-20), SA sensor, temperature not stated; EMSA: 5 nM …

## disA promoter probe
  Kd: 20 µM
